Laboratory results reported in patent publication US20180105596A1 (ELSALYS BIOTECH, published 2018).
Values belong to the binder of their own block, whether it stands above or below them.

Columns and labels:
[1] = target: T1, recombinant His-Strep tagged human Tyro3 extracellular domain (human, UniProt Q06418 41-429); assay: BLI (Octet K2), 1:1 global fit; analyte concentration of this kobs not given
T1 construct: also called hTyro3 ECD; full Tyro3 ECD
T1 sequence: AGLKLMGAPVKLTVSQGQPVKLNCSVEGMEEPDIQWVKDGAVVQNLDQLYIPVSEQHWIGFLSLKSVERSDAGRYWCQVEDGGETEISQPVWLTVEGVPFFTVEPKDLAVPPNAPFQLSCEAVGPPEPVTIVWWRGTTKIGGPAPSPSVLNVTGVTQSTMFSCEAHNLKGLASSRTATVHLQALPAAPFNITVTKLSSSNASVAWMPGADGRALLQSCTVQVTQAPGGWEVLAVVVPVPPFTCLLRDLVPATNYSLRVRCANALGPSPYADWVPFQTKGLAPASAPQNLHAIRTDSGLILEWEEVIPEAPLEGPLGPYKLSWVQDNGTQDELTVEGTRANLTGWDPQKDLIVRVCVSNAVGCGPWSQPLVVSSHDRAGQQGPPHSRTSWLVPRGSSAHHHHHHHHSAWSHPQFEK
Protocol: (§1) Affinity determinations were performed using biolayer interferometry on an Octet K2 instrument (Pall/ForteBio) equipped with anti-Human Kinetics (AHC) disposable fiber-optic biosensor tips. All experiments were conducted at 30° C. in the recommended Fortebio running buffer (PBS with 0.1% (w/v) bovine serum albumin (BSA) and 0.02% (v/v) Tween_20). This buffer was also used for dilution of ligand (here the antibody) and of the analyte (here the extra cellular domain of human Tyro3 protein). Samples in a 96-well microplates (No. Black polypropylene low binding plates, Greiner Bio-One, Frickenhausen, Germany) were agitated at 1000 rpm. […] Between measurements, the anti-human Tyro3 biosensor surfaces were regenerated by exposing them to 3 cycles of 5 sec in 10 mM glycine, pH 1.5, followed by 5 sec in PBS. Association phase was measured for 300 seconds, dissociation phase depending on the interaction for 300 seconds depending on dissociation step. All measurements were corrected for baseline drift using the double reference substraction, that is to say by subtracting a control sensor without ligand exposed to each concentration of the extra cellular domain of human Tyro3 protein and a reference well with ligand submitted to running buffer only. Affinity, association (kon) and dissociation rate constants (koff) for each antibody were calculated applying a 1:1 interaction model fitting global, Rmax linked by sensor) on the ForteBio data analysis software 9.0.

[2] = target: T1, recombinant His-Strep tagged human …; assay: BLI (Octet K2), IgG on AHC tips, hTyro3 ECD analyte, 1:1 global fit; KD Error 9,68E-10
Protocol: as §1, with “All measurements were corrected for baseline drift using the double reference substraction, that is to say by subtracting a control sensor without ligand exposed to each concentration of the extra cellular domain of human Tyro3 protein and a reference well with ligand submitted to running buffer only.” left out

[3] = target: T1, recombinant His-Strep tagged human …; assay: BLI (Octet K2), IgG on AHC tips, hTyro3 ECD analyte, 1:1 global fit; kon Error 1,63E+03
Protocol: as §1, with “All measurements were corrected for baseline drift using the double reference substraction, that is to say by subtracting a control sensor without ligand exposed to each concentration of the extra cellular domain of human Tyro3 protein and a reference well with ligand submitted to running buffer only.” left out

[4] = target: T1, recombinant His-Strep tagged human …; assay: BLI (Octet K2), IgG on AHC tips, hTyro3 ECD analyte, 1:1 global fit; kdis(1/s); kdis Error 6,46E-05
Protocol: as §1, with “All measurements were corrected for baseline drift using the double reference substraction, that is to say by subtracting a control sensor without ligand exposed to each concentration of the extra cellular domain of human Tyro3 protein and a reference well with ligand submitted to running buffer only.” left out

[5] = target: T2, cynomolgus Tyro3 ECD, His-Strep tagged; assay: sandwich ELISA, Strep-tagged cynomolgus Tyro3 ECD captured on StrepMAB plate, IgG 3-fold from 3 µg/mL, anti-human IgG1-HRP
T2 construct: also called cyno TYRO3 ECD 8hisstrep
T2 extracellular domain: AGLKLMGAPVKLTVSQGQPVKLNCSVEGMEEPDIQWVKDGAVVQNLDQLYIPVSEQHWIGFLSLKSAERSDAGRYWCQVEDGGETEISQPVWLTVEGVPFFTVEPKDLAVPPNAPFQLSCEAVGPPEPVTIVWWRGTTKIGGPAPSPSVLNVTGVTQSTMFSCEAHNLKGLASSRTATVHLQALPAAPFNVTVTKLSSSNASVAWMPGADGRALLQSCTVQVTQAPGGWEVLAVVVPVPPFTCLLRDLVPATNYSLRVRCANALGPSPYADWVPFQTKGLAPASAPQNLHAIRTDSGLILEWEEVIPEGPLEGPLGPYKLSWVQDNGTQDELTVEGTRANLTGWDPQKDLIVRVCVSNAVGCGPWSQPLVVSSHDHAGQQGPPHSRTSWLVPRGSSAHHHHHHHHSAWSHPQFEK
Protocol: [The procedure below names another species; the source lists this species under the same test.] (§2) A double sandwich ELISA was developed. This assay consisted in measuring the binding of the anti-Tyro3 antibodies to be tested on immobilized strep-tagged entire human Tyro3 ECD captured directly on ELISA plate pre-coated with an anti-strep mAb (StrepMAB-Immo coated microplates from IBA biotech). Briefly, the 96 wells of StrepMAB-Immo coated microplate were washed three times with 300 μL of the PBS Tween 0.2% (referred as ELISA washing solution). The capture of an excess of purified strep tagged hTyro3 ECD protein was achieved by a one hour incubation at room temperature. In these experiments, 3 μg of purified protein diluted in PBS, BSA 1% (referred as ELISA diluent solution) were immobilized per well. The wells were washed three times with 300 μL of the washing solution. The non-specific binding sites on the well surface were blocked during 60 min at room temperature with 200 μL/well of blocking solution (PBS, BSA 3%). The wells were washed five times with 300 μL of the washing solution. Then, 100 μl (in duplicates) of the different concentrations of anti-Tyro3 antibodies to be tested diluted in ELISA diluent solution, were added per well and allowed to incubate during 1 hour at room temperature. An Irrelevant control IgG2656 was also added in this experiment. For anti-Tyro3 antibodies in the ScFv format, experiments were performed with 6 concentrations in duplicates (FIG. 3A). For anti-Tyro3 antibodies in the IgG format, experiments were performed with 9 concentrations in duplicates (FIG. 3B). […] For IgGs experiments, starting concentration for first dilution was 3 μg/ml and then dilutions of 3 fold in the ELISA diluent solution were performed. The wells were washed five times with 300 μL of the washing solution. […] The mix was allowed to incubated 60 min at room temperature.

[6] = target: T3, recombinant human Tyro3 on transfected HEK293 cells (human, UniProt Q06418); assay: flow cytometry, 1 µg IgG per 5E5 live HEK293 cells, PE anti-human lambda
T3 construct: membrane receptor on HEK293 cells; untransfected HEK293 cells (endogenous Tyro3) serve as comparison; also called Tyro3-transfected cells
T3 sequence (receptor, looked up): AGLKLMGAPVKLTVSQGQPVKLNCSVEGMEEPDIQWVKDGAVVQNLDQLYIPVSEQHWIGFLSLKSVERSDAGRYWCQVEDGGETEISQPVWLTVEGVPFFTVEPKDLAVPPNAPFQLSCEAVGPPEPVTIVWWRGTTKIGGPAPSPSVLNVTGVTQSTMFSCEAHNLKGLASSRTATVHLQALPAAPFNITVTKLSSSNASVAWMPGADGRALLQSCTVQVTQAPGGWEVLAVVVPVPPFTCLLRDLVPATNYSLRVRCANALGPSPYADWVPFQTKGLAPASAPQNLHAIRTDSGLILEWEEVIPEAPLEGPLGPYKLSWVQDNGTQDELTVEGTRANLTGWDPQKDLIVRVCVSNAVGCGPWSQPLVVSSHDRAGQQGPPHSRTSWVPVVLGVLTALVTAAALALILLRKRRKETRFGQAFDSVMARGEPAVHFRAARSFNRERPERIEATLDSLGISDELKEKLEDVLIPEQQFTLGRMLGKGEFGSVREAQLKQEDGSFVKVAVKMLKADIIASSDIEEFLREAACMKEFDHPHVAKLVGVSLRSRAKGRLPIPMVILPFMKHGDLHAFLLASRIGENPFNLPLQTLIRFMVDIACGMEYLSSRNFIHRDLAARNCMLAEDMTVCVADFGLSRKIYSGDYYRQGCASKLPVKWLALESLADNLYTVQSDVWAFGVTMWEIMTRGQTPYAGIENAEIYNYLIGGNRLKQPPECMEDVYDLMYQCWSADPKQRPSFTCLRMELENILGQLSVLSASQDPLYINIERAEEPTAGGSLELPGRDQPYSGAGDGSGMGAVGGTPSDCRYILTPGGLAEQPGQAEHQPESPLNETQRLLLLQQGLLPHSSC
Protocol: FIG. 9: Binding of anti-Tyro3 IgGs in living cells. HEK293 cells transfected to express recombinant human Tyro3 and HEK293 untransfected cells were stained with the Live-Dead NIR dye and either incubated with the TYRO 3-specific MAB859 monoclonal antibody, its isotype control (upper panels) or to individual anti-Tyro3 IgG (middle and bottom panels). IgG isotype control is IGX2656. […] Data were acquired using an ARIA III flow cytometer (Becton Dickinson) and analyzed using the Kaluza software (Beckman Coulter). Histograms shown are restricted to live cells that show a characteristic size and granulometry of HEK293 cells. Anti-Tyro3 IgG Tyro3-specific binding is shown by fluorescence intensity increase of Tyro3-transfected cells (black line) compared to untransfected cells (grey line).
To determine the individual IgG ability to further bind Tyro3-transfected cells than untransfected cells, 5^E5 untransfected and Tyro3-transfected cells were exposed to Live-Dead NIR dye (Life Technologies, #L10119) and 1 μg of each IgX in PBS for 30 minutes at 4° C. […] Cells were washed and PE fluorescence of at least 10,000 live cells was immediately recorded on an ARIA III flow cytometer (Beckton Dickinson) (middle and bottom panels of FIG. 9). IgG ability to bind overexpressed Tyro3 was determined with overlay histograms showing PE expression profile of untransfected and Tyro3-transfected cell. […]

[7] = target: T1, recombinant His-Strep tagged human …; assay: sandwich ELISA, Strep-tagged hTyro3 ECD captured on StrepMAB plate, IgG 3-fold from 3 µg/mL, anti-human IgG1-HRP
Protocol: as §2

[8] = target: T1, recombinant His-Strep tagged human …; assay: BLI (Octet K2), IgG on AHC tips, hTyro3 ECD analyte, 1:1 global fit; KD Error 2,48E-09
Protocol: as §1, with “All measurements were corrected for baseline drift using the double reference substraction, that is to say by subtracting a control sensor without ligand exposed to each concentration of the extra cellular domain of human Tyro3 protein and a reference well with ligand submitted to running buffer only.” left out

[9] = target: T1, recombinant His-Strep tagged human …; assay: BLI (Octet K2), IgG on AHC tips, hTyro3 ECD analyte, 1:1 global fit; kon Error 9,23E+02
Protocol: as §1, with “All measurements were corrected for baseline drift using the double reference substraction, that is to say by subtracting a control sensor without ligand exposed to each concentration of the extra cellular domain of human Tyro3 protein and a reference well with ligand submitted to running buffer only.” left out

[10] = target: T1, recombinant His-Strep tagged human …; assay: BLI (Octet K2), IgG on AHC tips, hTyro3 ECD analyte, 1:1 global fit; kdis(1/s); kdis Error 1,11E-04
Protocol: as §1, with “All measurements were corrected for baseline drift using the double reference substraction, that is to say by subtracting a control sensor without ligand exposed to each concentration of the extra cellular domain of human Tyro3 protein and a reference well with ligand submitted to running buffer only.” left out

B1: IgG2410 (antibody, V domains shown)
VH: EVQLVQSGADVKKPGASLTISCQASGYTFTDYWISWVRQKPGKGLEWMGQIVPRASRTNYGPSFQGHVTISADRSTATAYLQWRSLEASDTAMYYCVRPYFQTSGGTIPEYYQHWGPGTLVTVSS
VL: SYELTQPPSVSVSPGQTARITCSGDALPKKYAYWYQQKSGQAPVLVIYEDEKRASGIPERFSGSSSGTMATLTISGAQVEDEADYYCYSQERNGNYAVFGGGTKLTVL
notes: also called IGX2410
kobs [1]: 0.0145 s⁻¹ | Kd [2]: 58.9 nM | kon [3]: 120000 M⁻¹ s⁻¹ | koff [4]: 0.00704 s⁻¹ | binding result [5]: binds

B3: IgG2411 (antibody, V domains shown)
VH: EVQLVQSGADVKKPGASLTISCQASGYTFTDYWISWVRQKPGKGLEWMGSITRSSSRTHYGPSFQGHVTISADRSTATAYLQWRSLEASDTAMYYCVRGYTHLRTWGPGTLVTVSS
VL: SYELTQPPSVSVSPGQTARITCSGDALPKKYAYWYQQKSGQAPVLVIYEDSKRSSGIPERFSGSSSGTMATLTISGAQVEDEADYYCYSANQRGNYMVFGGGTKLTVL
notes: also called IGX2411
EC50 (read off the curve) [7]: ~0.02 µg/mL | EC50 (read off the curve) [5]: ~0.02 µg/mL

The remaining lines, values ahead:

binding result [6]: binds | binding result [7]: binds | binding result [5]: binds
B2: IgG2717 (antibody, V domains shown)
VH: EVQLVQSGADVKKPGASLTISCQASGYTFTDYWISWVRQKPGKGLEWMGEIFLPPSTTVYGPSFQGHVTISADRSTATAYLQWRSLEASDTAMYYCVRQTRLTSGGTIPEYYQHWGPGTLVTVSS
VL: SYELTQPPSVSVSPGQTARITCSGDALPKKYAYWYQQKSGQAPVLVIYEDNKRGSGIPERFSGSSSGTMATLTISGAQVEDEADYYCYSKSPEGNYMVFGGGTKLTVL
notes: also called IGX2717

kobs [1]: 0.0175 s⁻¹ | Kd [8]: 135 nM | kon [9]: 67400 M⁻¹ s⁻¹ | koff [10]: 0.0091 s⁻¹ | binding result [5]: binds
B4: IgG2412 (antibody, V domains shown)
VH: EVQLVQSGADVKKPGASLTISCQASGYTFTDYWISWVRQKPGKGLEWMGRIRPLLSHTMYGPSFQGHVTISADRSTATAYLQWRSLEASDTAMYYCVRSWLATSGGTIPEYYQHWGPGTLVTVSS
VL: SYELTQPPSVSVSPGQTARITCSGDALPKKYAYWYQQKSGQAPVLVIYEDAKRVSGIPERFSGSSSGTMATLTISGAQVEDEADYYCYSASANGNYRVFGGGTKLTVL
notes: also called IGX2412
